Target: FleQ, full length (FleQFL) (Pseudomonas aeruginosa) (UniProt G3XCV0)
Sequence (G3XCV0 whole entry): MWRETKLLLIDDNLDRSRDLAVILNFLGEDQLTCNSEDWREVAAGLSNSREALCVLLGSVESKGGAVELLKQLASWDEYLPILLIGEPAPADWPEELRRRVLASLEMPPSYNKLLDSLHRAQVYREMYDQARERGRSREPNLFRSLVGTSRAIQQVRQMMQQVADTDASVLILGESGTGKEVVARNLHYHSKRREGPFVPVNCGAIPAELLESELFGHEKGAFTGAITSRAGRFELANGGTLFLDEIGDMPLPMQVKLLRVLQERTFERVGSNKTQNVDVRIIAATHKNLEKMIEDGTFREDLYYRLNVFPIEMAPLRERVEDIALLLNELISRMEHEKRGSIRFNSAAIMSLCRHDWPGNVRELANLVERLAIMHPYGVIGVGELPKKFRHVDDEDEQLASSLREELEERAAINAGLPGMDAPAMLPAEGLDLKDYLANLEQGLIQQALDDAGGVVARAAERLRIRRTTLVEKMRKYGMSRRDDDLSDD

Binder: PANPRGHLEFFVERLVQHPATGSAV [C-terminal peptide of FleN comprising the last 25 amino acids]
- ATPase activity of FleQ (1 μM) left with 100 μM C-terminal peptide of FleN: 66%
